Results reported in the Human Domainome abundance scans (Beltran et al. 2025).

B1: Histone H1t, residues 44 to 112; numbered along this chain, P22492 (parent)
chain: VSKLITEALSVSQERVGMSLVALKKALAAAGYDVEKNNSRIKLSLKSLVNKGILVQTRGTGASGSFKLS
B2: Chromodomain-helicase-DNA-binding protein 7, residues 2564 to 2605; numbered along this chain, Q9P2D1 (parent)
chain: DPDTRIPVINLEDGTRLVGEDAPKNKDLVEWLKLHPTYTVDM

Variants of: B1
Assay: abundance fitness (aPCA) (normalised: wild type 0, dead -1); higher = more abundant; growth selection in yeast, the domain comes from the species named
Settings: Homo sapiens

Abundance fitness, by site and new letter:
G64: M 0.165 | D -0.013 | E 0.054 | I 0.103 | S 0.046 | V 0.154 | T 0.11 | H -0.209 | Y -0.051 | K 0.031 | Q 0.085 | W -0.097 | N -0.373 | P 0.168 | L 0.05 | R -0.026 | C 0.275 | F -0.067 | A 0.196
K67: C -0.096 | V -0.109 | M -0.066 | Y -0.181 | Q -0.092 | T -0.193 | W -0.246 | R -0.035 | L -0.158 | D -0.174 | S 0.024 | H -0.148 | N -0.091 | I -0.192 | P -0.202 | A -0.028 | F 0.06
R58: A 0.078 | C -0.121 | I -0.09 | M -0.077 | S 0.103 | W -0.151 | Q 0.036 | H -0.041 | K 0.155 | V -0.089 | E 0.028 | N 0.227 | Y -0.246 | G 0.205 | P -0.02 | L -0.073 | D 0.022 | F -0.115
V55: M 0.002 | G 0.056 | F -0.114 | N -0.102 | L -0.056 | E 0.027 | W -0.297 | Y -0.15 | P -0.163 | D -0.291 | I -0.079 | A -0.106 | Q -0.127 | S 0.071 | H -0.08 | T 0.062 | C -0.077
S65: G -0.003 | K -0.049 | A 0.031 | R -0.285 | F -0.146 | N 0.008 | T 0.062 | E 0.175 | H -0.084 | Q 0.039
S69: Q -0.102 | V -0.093 | E 0.119 | K -0.012 | F -0.058 | Y 0.171 | D -0.192 | W 0.173 | R -0.151 | M -0.186 | A 0.044 | T -0.029 | H -0.465 | I -0.156 | C -0.246 | N -0.055 | G -0.218 | P -0.115 | L -0.128
T60: E -0.012 | K 0.013 | Y -0.218 | L -0.102 | D 0.133 | H -0.076 | N -0.036 | R -0.126 | Q -0.02 | I -0.115 | M 0.062 | A 0.074 | P 0.025 | W -0.123 | V -0.038 | G -0.033 | C -0.042 | F -0.236
G52: S -0.129 | T -0.15 | Y -0.425 | W -0.457
F66: W -0.064 | M -0.173 | N -0.119 | A 0.008 | D 0.053 | I -0.246 | T -0.129 | V -0.078 | Y -0.046 | H -0.289 | R -0.084 | Q -0.072 | G -0.127 | S -0.108 | E -0.03 | L -0.097 | P -0.112 | K -0.042
L68: A -0.176 | N -0.149 | F -0.1 | G -0.049 | Y -0.185 | Q -0.327 | W -0.121 | I -0.223 | T -0.067 | R -0.138 | E -0.099 | C -0.202 | S -0.115 | D -0.147 | K -0.064 | M -0.082 | H -0.369
I53: F -0.031 | V -0.025 | P -0.202 | E -0.002 | M -0.054 | Y -0.184 | T -0.082 | A -0.118 | C -0.153 | L -0.067 | G -0.363 | H -0.095 | W -0.062 | R -0.099 | Q 0.033 | S -0.081
L54: H -0.325 | P -0.083 | F -0.036 | S -0.047 | I 0.197 | Y -0.311 | T -0.246 | V 0.158 | Q 0.092 | A -0.3 | M 0.062 | N -0.249 | R 0.168 | K -0.087
S63: Q 0.057 | K -0.019 | Y -0.204 | I -0.045 | R -0.133 | P -0.027 | N -0.113 | V -0.006 | H 0.025 | L 0.006 | F -0.028 | T 0.004 | C -0.54 | G 0.085 | D 0.029 | E 0.152
G59: S -0.113 | V -0.09 | H -0.13 | N -0.186 | Y -0.222 | F -0.074 | M -0.152 | Q -0.079 | K 0.001 | A -0.148 | D 0.025 | L -0.049 | E -0.086 | I 0.119 | P -0.138 | R -0.146 | C -0.015
G61: D 0.082 | S -0.07 | R -0.188 | E -0.032 | M -0.213 | Q -0.081 | A -0.103 | I -0.171 | V -0.185 | F -0.16 | P -0.144 | N 0.055 | L -0.182 | Y -0.218 | C -0.018 | K 0.023 | T -0.044 | H -0.006 | W -0.176
A62: N 0.073 | P -0.013 | E 0.133 | K 0.054 | G 0.104 | T -0.006 | H -0.054 | D 0.008 | R -0.072 | Q 0.021
T57: R -0.036 | E 0.117 | I -0.147 | C -0.019 | W -0.252 | F -0.14 | Y -0.133 | A 0.024 | Q -0.013 | P -0.061 | H -0.001 | K -0.011 | N -0.058 | S -0.039 | M -0.048 | L -0.026 | V -0.052 | G -0.102
Q56: R -0.031 | P -0.026 | A 0.212 | E 0.127 | K 0.083 | T 0.047 | G 0.005

Variants of: B2
Assay: as above
Settings: Homo sapiens

Abundance fitness: each site, then its substitutions
D3: A -0.283 | H 0.089 | I -0.54 | T -0.182 | M -0.063 | E 0.106 | S -0.137 | Q -0.109 | L -0.122 | F -0.259 | R -0.256 | C -0.749 | V -0.335 | W -0.53 | G -0.384
D1: V -0.184 | C -0.283 | A -0.69 | F 0.073 | Y -0.298 | E -1.19 | R -1 | G -0.901 | L -0.43 | S -0.237
I6: F -0.283 | L -0.697 | H -0.133 | D -0.201 | E -0.276
P2: W -0.02 | R 0.161 | S 0.017 | Q 0.182 | G -0.074 | L -0.179 | I -0.078 | H -0.737 | C 0.148 | F -0.513 | T 0.179 | D -0.301 | A -0.031
R5: V -0.372 | K 0.124 | F -0.451 | W -0.906 | I -0.39 | D -0.709 | S -0.303 | Q -0.493 | G -0.374 | N -0.349 | P -0.004 | M -0.242 | L -0.844 | C -0.27 | T -0.244
T4: P -0.286 | I -0.115
